A short description of this assay: OTA detoxification activity assay (specific activity, fluorescence reduction ex/em 390/450 nm). It counts as biochemical. The conditions noted are these: SEQ ID NO: 1 = 100%. Put shortly: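 Recombinant enzyme preparation with 200 ng/mL OTA in 100 mM sodium phosphate, at pH 6.0 and pH 7.5, 37° C. Degradation followed as the fall in fluorescence at ex/em 390/450 nm. Specific activity taken from the initial linear slope; one unit degrades 1 μmol OTA per min at a starting OTA of […].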

B1: 249 (protein)
chain: MTTRTRILTAFLSLLAANACAADAAPAAPHTVVLRAARMFDGASGKLVDHPQLTIVGNKIVRIAQGDKAEVPAGAEVVDLGDATLLPGFIDAHVHLSGQSSDNWYGDFFDNMMRFPAEQALYGAYYARITLEAGFTSVRDVGSTDWVALGLRNAIDAGKVPGPRMLVSNYAVGSTGGHADQDPIPPHKLPLAGPLQGVCNGPEECRAAVRYQIKYGANVIKFMPSGGVLSLSDPVDAPELSQDEMNAVIGESHAWGRKVAAHAHGDKAAKMAVAAGVDSIEHGSFIEDDTLRAMKAKNVYLVPTISAIAHVEEKIGTFPPVIAEKGRAAAAHLRQTFRHAVQIGVPIALGTDAGVGAAGSNAREFRYMVENGLTPAQALLAGTANAARLLGTFDRVGTLEAGKLADVVAVPGNPIADITVTERPLFVMKDGVVVRRDAVR
modifications: exemplary polypeptide
For the molecule B1, the “Specific OTA detoxification activities in % compared to the enzyme of SEQ ID NO: 1, pH 6.0” value came out at 21% and the “Specific OTA detoxification activities in % compared to the enzyme of SEQ ID NO: 1, pH 7.5” value came to 26%.

B2: 263 (protein)
chain: MTTRTRILTAFLSLLAANACAADAAPAAPHTVVLRAARMFDGASGKLVDHPQLTIVGNKIVRIAQGDKAEVPAGAEVVDLGDATLLPGFIDAHVHLSGQSSDNWNGDFFDNMMRFPAEQALYGAYYARITLEAGFTSVRDVGSTDWVALGLRNAIDAGKVPGPRMLVSNYAVGSTGGHADQDPIPPHKLPLAGPLQGVCNGPEECRAAVRYQIKYGANVIKFMPSGGVLSLSDPVDAPELSQDEMNAVIGESHAWGRKVAAHAHGDKAAKMAVAAGVDSIEHGSFIEDDTLRAMKAKNVYLVPTISAIAHVEEKIGTFPPVIAEKGRAAAAHLRQTFRHAVQIGVPIALGTDAGVGAHGSNAREFRYMVENGLTPAQALLAGTANAARLLGTFDRVGTLEAGKLADVVAVPGNPIADITVTERPLFVMKDGVVVRRDAVR
modifications: exemplary polypeptide
As to B2, the “Specific OTA detoxification activities in % compared to the enzyme of SEQ ID NO: 1, pH 6.0” value turned out to be 19% and the “Specific OTA detoxification activities in % compared to the enzyme of SEQ ID NO: 1, pH 7.5” value was found to be 11%.

B3: 265 (protein)
chain: MTTRTRILTAFLSLLAANACAADAAPAAPHTVVLRAARMFDGASGKLVDHPQLTIVGNKIVRIAQGDKAEVPAGAEVVDLGDATLLPGFIDAHVHLSGQSSDNWYPDFFDNMMRFPAEQALYGAYYARITLEAGFTSVRDVGSTDWVALGLRNAIDAGKVPGPRMLVSNYAVGSTGGHADQDPIPPHKLPLAGPLQGVCNGPEECRAAVRYQIKYGANVIKFMPSGGVLSLSDPVDAPELSQDEMNAVIGESHAWGRKVAAHAHGDKAAKMAVAAGVDSIEHGSFIEDDTLRAMKAKNVYLVPTISAIAHVEEKIGTFPPVIAEKGRAAAAHLRQTFRHAVQIGVPIALGTDAGVGAHGSNAREFRYMVENGLTPAQALLAGTANAARLLGTFDRVGTLEAGKLADVVAVPGNPIADITVTERPLFVMKDGVVVRRDAVR
modifications: exemplary polypeptide
Regarding B3, the “Specific OTA detoxification activities in % compared to the enzyme of SEQ ID NO: 1, pH 6.0” value came to 20% and the “Specific OTA detoxification activities in % compared to the enzyme of SEQ ID NO: 1, pH 7.5” value stood at 11%.

B4: 264 (protein)
chain: MTTRTRILTAFLSLLAANACAADAAPAAPHTVVLRAARMFDGASGKLVDHPQLTIVGNKIVRIAQGDKAEVPAGAEVVDLGDATLLPGFIDAHVHLSGQSSDNWRGDFFDNMMRFPAEQALYGAYYARITLEAGFTSVRDVGSTDWVALGLRNAIDAGKVPGPRMLVSNYAVGSTGGHADQDPIPPHKLPLAGPLQGVCNGPEECRAAVRYQIKYGANVIKFMPSGGVLSLSDPVDAPELSQDEMNAVIGESHAWGRKVAAHAHGDKAAKMAVAAGVDSIEHGSFIEDDTLRAMKAKNVYLVPTISAIAHVEEKIGTFPPVIAEKGRAAAAHLRQTFRHAVQIGVPIALGTDAGVGAHGSNAREFRYMVENGLTPAQALLAGTANAARLLGTFDRVGTLEAGKLADVVAVPGNPIADITVTERPLFVMKDGVVVRRDAVR
modifications: exemplary polypeptide
On to B4, for which the “Specific OTA detoxification activities in % compared to the enzyme of SEQ ID NO: 1, pH 6.0” value is 46% and the “Specific OTA detoxification activities in % compared to the enzyme of SEQ ID NO: 1, pH 7.5” value is 44%.

B5: 251 (protein)
chain: MTTRTRILTAFLSLLAANACAADAAPAAPHTVVLRAARMFDGASGKLVDHPQLTIVGNKIVRIAQGDKAEVPAGAEVVDLGDATLLPGFIDAHVHLSGQSSDNWYGDFFDNMMRFPAEQALYGAYYARITLEAGFTSVRDVGSTDWVALGLRNAIDAGKVPGPRMLVSNYAVGSTGGHADQDPIPPHKLPLAGPLQGVCNGPEECRAAVRYQIKYGANVIKFMPSGGVLSLSDPVDAPELSQDEMNAVIGESHAWGRKVAAHAHGDKAAKMAVAAGVDSIEHGSFIEDDTLRAMKAKNVYLVPTISAIAHVEEKIGTFPPVIAEKGRAAAAHLRQTFRHAVQIGVPIALGTDAGVGANGSNAREFRYMVENGLTPAQALLAGTANAARLLGTFDRVGTLEAGKLADVVAVPGNPIADITVTERPLFVMKDGVVVRRDAVR
modifications: exemplary polypeptide
For the molecule B5, the “Specific OTA detoxification activities in % compared to the enzyme of SEQ ID NO: 1, pH 6.0” value is recorded as 53% and the “Specific OTA detoxification activities in % compared to the enzyme of SEQ ID NO: 1, pH 7.5” value was 33%.

B6: 250 (protein)
chain: MTTRTRILTAFLSLLAANACAADAAPAAPHTVVLRAARMFDGASGKLVDHPQLTIVGNKIVRIAQGDKAEVPAGAEVVDLGDATLLPGFIDAHVHLSGQSSDNWYGDFFDNMMRFPAEQALYGAYYARITLEAGFTSVRDVGSTDWVALGLRNAIDAGKVPGPRMLVSNYAVGSTGGHADQDPIPPHKLPLAGPLQGVCNGPEECRAAVRYQIKYGANVIKFMPSGGVLSLSDPVDAPELSQDEMNAVIGESHAWGRKVAAHAHGDKAAKMAVAAGVDSIEHGSFIEDDTLRAMKAKNVYLVPTISAIAHVEEKIGTFPPVIAEKGRAAAAHLRQTFRHAVQIGVPIALGTDAGVGAKGSNAREFRYMVENGLTPAQALLAGTANAARLLGTFDRVGTLEAGKLADVVAVPGNPIADITVTERPLFVMKDGVVVRRDAVR
modifications: exemplary polypeptide
As for B6, the “Specific OTA detoxification activities in % compared to the enzyme of SEQ ID NO: 1, pH 6.0” value came out at 17% and the “Specific OTA detoxification activities in % compared to the enzyme of SEQ ID NO: 1, pH 7.5” value was 21%.

B7: 254 (protein)
chain: MTTRTRILTAFLSLLAANACAADAAPAAPHTVVLRAARMFDGASGKLVDHPQLTIVGNKIVRIAQGDKAEVPAGAEVVDLGDATLLPGFIDAHVHLSGQSSDNWYGDFFKNMMRFPAEQALYGAYYARITLEAGFTSVRDVGSTDWVALGLRNAIDAGKVPGPRMLVSNYAVGSTGGHADQDPIPPHDLPLAGPLQGVCNGPEECRAAVRYQIKYGANVIKFMPSGGVLSLSDPVDAPELSQDEMNAVIGESHAWGRKVAAHAHGDKAAKMAVAAGVDSIEHGSFIEDDTLRAMKAKNVYLVPTISAIAHVEEKIGTFPPVIAEKGRAAAAHLRQTFRHAVQIGVPIALGTDAGVGAHGSNAREFRYMVENGLTPAQALLAGTANAARLLGTFDRVGTLEAGKLADVVAVPGNPIADITVTERPLFVMKDGVVVRRDAVR
modifications: exemplary polypeptide
B7: the “Specific OTA detoxification activities in % compared to the enzyme of SEQ ID NO: 1, pH 6.0” value worked out at 32% and the “Specific OTA detoxification activities in % compared to the enzyme of SEQ ID NO: 1, pH 7.5” value was 15%.

B8: 252 (protein)
chain: MTTRTRILTAFLSLLAANACAADAAPAAPHTVVLRAARMFDGASGKLVDHPQLTIVGNKIVRIAQGDKAEVPAGAEVVDLGDATLLPGFIDAHVHLSGQSSDNWYGDFFDNMMRFPAEQALYGAYYARITLEAGFTSVRDVGSTDWVALGLRNAIDAGKVPGPRMLVSNYAVGSTGGHADQDPIPPHKLPLAGPLQGVCNGPEECRAAVRYQIKYGANVIKFMPSGGVLSLSDPVDAPELSQDEMNAVIGESHAWGRKVAAHAHGDKAAKMAVAAGVDSIEHGSFIEDDTLRAMKAKNVYLVPTISAIAHVEEKIGTFPPVIAEKGRAAAAHLRQTFRHAVQIGVPIALGTDAGVGAHGSEAREFRYMVENGLTPAQALLAGTANAARLLGTFDRVGTLEAGKLADVVAVPGNPIADITVTERPLFVMKDGVVVRRDAVR
modifications: exemplary polypeptide
Consider B8, for which the “Specific OTA detoxification activities in % compared to the enzyme of SEQ ID NO: 1, pH 6.0” value was 32% and the “Specific OTA detoxification activities in % compared to the enzyme of SEQ ID NO: 1, pH 7.5” value turned out to be 13%.

B9: 258 (protein)
chain: MTTRTRILTAFLSLLAANACAADAAPAAPHTVVLRAARMFDGASGKLVDHPQLTIVGNKIVRIAQGDKAEVPAGAEVVDLGDATLLPGFIDAHVHLSGQSSDNWYGDFFDNMMRFPAEQALYGAYYARITLEAGFTSVRDVGSTDWVALGLRNAIDAGKVPGPRMLVSNYAVGSTGGHADQDPIPPHKLPLAGPLQGVCNGPEECRAAVRYQIKYGANVIKFMPSGGVLSLSDPVDAPELSQDEMNAVIGESHAWGRKVAAHAHGDKAAKMAVAAGVDSIEHGDFIEDDTLRAMKAKNVYLVPTISAIAHVEEKIGTFPPVIAEKGRATAAHLRQTFRHAVQIGVPIALGTDAGVGAHGSNAREFRYMVENGLTPAQALLAGTANAARLLGTFDRVGTLEAGKLADVVAVPGNPIADITVTERPLFVMKDGVVVRRDAVR
modifications: exemplary polypeptide
Take B9: the “Specific OTA detoxification activities in % compared to the enzyme of SEQ ID NO: 1, pH 6.0” value is on record as 29% and the “Specific OTA detoxification activities in % compared to the enzyme of SEQ ID NO: 1, pH 7.5” value was 25%.

B10: 257 (protein)
chain: MTTRTRILTAFLSLLAANACAADAAPAAPHTVVLRAARMFDGASGKLVDHPQLTIVGNKIVRIAQGDKAEVPAGAEVVDLGDATLLPGFIDAHVHLSGQSSDNWYGDFFDNMMRFPAEQALYGAYYARITLEAGFTSVRDVGSTDWVALGLRNAIDAGKVPGPRMLVSNYAVGSTGGHADQDPIPPHKLPLAGPLQGVCNGPEECRAAVRYQIKYGANVIKFMPSGGVLSLSDPVDAPELSQDEMNAVIGESHAWGRKVAAHAHGDKAAKMAVAAGVDSIEHGDFIEDDTLRAMKAKNVYLVPTISAIAHVEEKIGTFPPVIAEKGRASAAHLRQTFRHAVQIGVPIALGTDAGVGAHGSNAREFRYMVENGLTPAQALLAGTANAARLLGTFDRVGTLEAGKLADVVAVPGNPIADITVTERPLFVMKDGVVVRRDAVR
modifications: exemplary polypeptide
On to B10, for which the “Specific OTA detoxification activities in % compared to the enzyme of SEQ ID NO: 1, pH 6.0” value amounted to 34% and the “Specific OTA detoxification activities in % compared to the enzyme of SEQ ID NO: 1, pH 7.5” value is 15%.

For the origin of these results see patent publication US20240352438A1, “MEANS AND METHODS FOR DETOXIFYING OCHRATOXIN A” (DSM Austria GmbH, priority 2021, published 2024).
